These results are taken from paper PMC8373123.

This assay has as its target human NPC1L1 (Niemann-Pick C1-like 1), wild type, C-terminal Flag tag (human) (UniProt Q9UHC9). As to the kind of experiment: cryo-EM structure.

Usually stoichiometry N stands for the number of molecules, sites or subunits per partner or assembly. With “human NPC1L1 (Niemann-Pick C1-like 1), wild type, C-terminal Flag tag (from UniProt Q9UHC9-2 22-1332) (natural protein)”, the stoichiometry N turned out to be 2.
